Literature values, collected in patent US20220370374A1, “TRANSDERMAL ABSORPTION-TYPE PATCH” (KYUSHU UNIVERSITY, NATIONAL UNIVERSITY CORPORATION, priority 2019, published 2022).
Read-outs that look alike come from different tables or passages of the source.

Row | Compound | solubility (in ethanol, acetic acid, or N-methylpyrrolidone) | solubility (in water) | solubility (in ethanol) | solubility (in methanol) | solubility (in water or acetic acid)
1 | C[C@@H](O)[C@@H]1NC(=O)[C@H](CCCCN)NC(=O)[C@@H](Cc2c[nH]c3ccccc23)NC(=O)[C@H](Cc2ccccc2)NC(=O)[C@@H](NC(=O)[C@H](N)Cc2ccccc2)CSSC[C@@H](C(=O)N[C@H](CO)[C@@H](C)O)NC1=O [Octreotide acetate] | freely soluble | Extremely soluble | – | – | –
2 | Leuprorelin | – | – | slightly insoluble | soluble | freely soluble
